Experimental data published in the nanobody polyreactivity screen of Harvey et al. (2022).

Assay: yeast display, Sf9 membrane polyspecificity reagent, FACS + sequencing; frameworks hold sequencing errors
Outline: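 Polyreactivity labels are assigned by the sorting gate from which each nanobody was recovered. The gates were low and high (top ~1%), set on anti-HA fluorescence for expression and streptavidin fluorescence for reagent binding. Before sorting, galactose-induced (36–48 hours) yeast display cells were stained for 1 hour at 4 °C with 10% biotinylated, detergent-solubilized Sf9 membrane reagent.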

| Sequence | polyreactivity (PSR sort gate) |
| --- | --- |
| QVQLVESGGGLVQAGGSLRLSCAASGSIYYPYAMGRYRQAPGKERELVAAITTGGSTYYADSVKGRFTISRDNAKNTVYLQMNSLKPEDTAVYYGNKGSFPYTSKAYSYSLGGDDYWGQGTQVTVSS | low polyreactivity |
| QVQLVESGGGLVQAGGSLRLSCAASGINIKYNTMGWYRQAPGKERELVAAISSSGGTKYYADSVKGRFTISRDNAKNTVYLQMNSLKPEDTAVYYCAAGANAQRVPNGDYWGQGTQVTVSS | low polyreactivity |
| QVQLVESGGGLVQAGGSLRLSCAASGRTFFTNAMGWYRQAPGKERELVASINSGGNTTYADSVKGRFTISRDNAKNTVYIQMNSLKPEDTAVYYCAAVRSAQRWRRYYYWGQGTQVTVSS | low polyreactivity |
| QVQLEESGVGLVQAGGSLRLSSAASGNIFVRYSMGWYRQARGKERELVAAISWSGGRTYYADSVKGRFTISRDKAKNSVYFQMNSLKPEDTAVYYCAAGVPKIGQAGYDYWGQGTQVTVSA | high polyreactivity |
| QVQLVESGGGLVQAGGSLRLSCAASGRIFKVYAMGWYRQAPGKERELVASIRWNTGSTYYADSVKGRFTISRDNAKNSVYLQMNSLKPEDTAVYYCAATDWWGYYYWGQGTQVTVSS | high polyreactivity |
| QVQLVESGGGLVQAGGSLRLSCAASGFTFSVYAMGWYRQAPGKERELVAAISRGGGGTYYADSVKGRFTISRDNAKNTVYLQMNSLKPEDTAVYYCNAAGYPQYKGYDYWGQGTQVTVSS | high polyreactivity |
| QVQLVESGGGLVQAGGSLRLSCAASGITLYFYAMGWYRQAPGKERELVAGISGSVGSTHYADSVKGRFTISRDNAKNTVYLQMNSLKPEDTAVYYCAARYPFLRPKVNYWGQGTQVTVSS | high polyreactivity |
| QVQLVESGGGLVQAGGSLRLSCAASGRNFNFNTIGWYRQAAGKEREFLAAITFRGVRTYYADSVKGRFTISRDNAKNTVYLQMISLKPEDTAVYYCATQARLYGGYDRYAGSYDYWGQGTQVTVSS | high polyreactivity |
| QVQLVESGGGLVQAGGSLRLSCAASGFIFVKNAMGWYRQAPGKERELVAVISTRGGRTYYADSVKGRFTISRDNAKNTVYLQMNSLKPEDTAVYYCAADIWFYTYYEYDYWGQGTQVTVSS | high polyreactivity |
| QVQLVESGGGLVQAGGSLRLSCAASGRTFVYYAMGWYRQAPGTERELVAAITFSGGYTYYADSVKGRFTISRDNAKNTVYLQMNSLKPEDTAVYYCAAQYRYSYPLGDYWGQGTQVTVSS | low polyreactivity |
| QVQLVDSGGGLVQAGGSLRLSCAASGRTLAFNAMGWYRQAPGKERELVAVIRNGTSTNYADSVKGRFTISRDNAKNTVYLQMNSLKPEDTGVYYCNVPYYLPSYLSGYDYWGQGTQVTVSS | low polyreactivity |
| QVQLVESGGGLVQAGGSLRLSCAASGFTFYKYAMGCYRQPPGKERELVAAITGRGGSTYYADSVKGRFTISRDNAKNTVYLQMNILKPEDTAVYYCAARTPSYEMDYWGQGTQVTVSS | high polyreactivity |
| QVQLVESGGGLVQAGGSLRLSCAASGITFEVNAMGWYRQAPGKERELVAAISRSAGSTYYADSVKGRFTISRDNAKNTVYLQMISLKPEDTAVYYCATALRYARSRNRFYYWGQGTQVSVSS | high polyreactivity |
| QVQLVESGGGLVQAGGSLRLSCAASGGTFTDYAMGWYRQAPGKERELVAAISSVGSTNYADSVKGRFTISRDNAKNTVYLQMNSLKPEDTAVYYCAVDYGRAVQGDSITYDFNYWGQGTQVTVSS | low polyreactivity |
| QVQLVESGGGLVQAGGSLRLSCAASGFIFRRYARGWYRQAPGKERELVASISWRGGSTYYADSVKGRFTISRDNAKNTVYLQMNSLKPEDTAVYYCAARIGATYWVDWTHRAYDYWGQGTQVTVSS | high polyreactivity |
| QVQLVESGGGLVQAGGSLRLICAASGSTFAIYAMGWYRQAPGKERELVAAISWRTGSTYYADSVKGRFTISRDNAKNTVYLQMNSLKPEDTAVYYCAVRGRLQYSGGEGNYWGQGTQVTVSS | high polyreactivity |
| QLQLGESGGGLVQAAGSRRLSCAASGRTLCYYAMGWYSQAPGQDRELVAAITWTGGRTYYADSVKGRFTISRDNPKNSVYLQMNTLKPDDTAVDYCNAVYSPRYYVGGYDYWGQGTQVTVSS | high polyreactivity |
| QVQLVESGGGLVQAGGSLRLSCAASGRIFRPYTMGWYRQAPGKEWELVAAISIGGRTYYADSVKGRFTISRDNAKNTVYLKMNSLKPEDTAVYYCAAVGGSDRRARPGRAVDYWGQGTQVTVSS | high polyreactivity |
| QVQLVESGGGLVQAGGSLRLSCAASGFIFSWYAMGWYRQAPGKERELVAAINWSGDSTYYADSVKGRFTISRDNAKNTVYLQMNSLKPEDTAVYYCAADPSYWGDPYDYWGQGTQVTVSS | high polyreactivity |
| QVQLVESGGGLVQAGGSLRLSCAASGITFRIYAMGWYRQAPGKEREFVAAINQRGGSTYYADSVKGRFTISRDNAKNTVYLQMNSLKPEDTAVYYCNADYSYVGEYDYWGQGTQVTVSS | low polyreactivity |
| QVQLVESGGGLVQAGGSLRLSCAASGFTFTAYAMGWYRQAPGKERELVAAINWSGSRTYYADSVKGRFTISRDNAKNTVYLQMNSLIPEDSAVYYCNTATSKSSYRHYDYWGQGTQVTVSS | high polyreactivity |
| QVQLVESGGGLVQAGGSLRLSCAASGRIFGDNALGWYRQAPGKERELVAAITWSGGSTYYADSVKGRFTISRDNAKNTVYLQMNSLKPEDTAVYYCAADSHRDSSEMDYWGQGTQVTVSS | low polyreactivity |

| Sequence | polyreactivity (PSR sort gate) |
| --- | --- |
| QVQLVESGGGLVQAGGSRRLSCAASGRIFGWYAMGWYRQAPGKERELVAAISRGGTRTNYADSVKGRFTISRDNAKNTGYLKMNSLKPEDTAVYYCASESFYSQFDYWGQGSQVTVSS | high polyreactivity |
| QVQLVESGVGLVQAGGSLRLSCAASGRIFAYYAMGWYRQAPGKERELVAAISSGGTTNYADSVKGRFTISRDNAKNTVYLQMNSLKPEDTAVYYCNADGWRRSRQYYYWGQGTQVTVSS | low polyreactivity |
| QVQLVESGGGLVQAGGSLRLSCAASGFIFYYYAMGWYRQAPGKERELVAAITGSGGNTYYADSVKGRFTISRDYAKNTVYFQMNSLKPEDTAFYYCNTGYDWGGDYWGQGTQVTVSS | high polyreactivity |
| QVQLVESGGGLVQAGGSLRLSCAASGSTLVRYAMGWYRQAPGKERELVAAISGSGGSTFYADSVKGRFTISRDNAKNSVYLQMNSLKPEDTAVYYCAARYYWYGRAGNKHASYYYWGQGTQVTVSS | high polyreactivity |
| QVQLVESGGGLVQAGGSLRLSCAASGLTFVWYGMGWYRQAPGKERELVAAITRGGSTYYADSVKGRFTISRDNAKNTVYLQMNSLKPEDTAVYYCAARYKYTGYDYWGQGTQVTVSS | high polyreactivity |
| QVQLVETGGGLVQAGGSLRLSCAPSGFIFYRNTMGWYRQAPGKERELDATISRRGGSTYYADSVKGRFTISRDNAKNTVYLQMNSLKPEDTAVYYCADGPRFSYYTHRYGYWGEGTQVTVSS | high polyreactivity |
| QVQLVESGGGLVQAGGSLRLSCAASGRILRGYAMGWYRQAPGKERELVAAISWNGGSTYYADSVKGRFTISRDNAKNTVYLQMNSLKPEDTAVYYCAVVFNPHRYTGVLAGYDYWGQGTQVTVSS | high polyreactivity |
| QVHLVESGGGLVQAGGSLRLSCAASGFTYSPYVMGWSRQAPGKEWELVASISKRGGGTYYADSVKGRFTISRDNAKKTFYLQMNRLKPEDTAVYYCNVVTATAYQGVDYWGQGSQVTVSS | high polyreactivity |
| QVQLVESGGGLVQAGGSLRLSCAASGYTFDGYAMGWYRPAPGKERELVAAINSGGGTYYADSVKGRFTISRDYAKNTVYLQMNSLIPDDTAVYYCNKKAYRKTGLDYWGQGTQVTVSS | low polyreactivity |
| QVQLVESGGGLVQAGGTLRLSCAASGSSYFYYAMGWYRQAPRKERELVADITSGGSTDYADSVKGRFTISRDNAKNTVYVQINSVNPEDSAVYYCAADDFSGYGTEYDYWGQGTQVTVSS | low polyreactivity |
| QVQLVESGAGLVQAGGSLRLSCAPSGFIFFVNAMGWYRQAPGKERELVADITKIDGTTYYADSVKGRFTISRDNAKNTVYLQMNSLKPEDTAVYYCAAGYRQLSSVRDYDYWGQGTQVTVSS | low polyreactivity |
| QVQLVESGGGLVQAGGSLRLSCAASGSTFYRYAMGWYRQAPGKERELVATITNSGGSTYYADSVKGRFTISRDNAKNTVYLQMNSLKPEDTAVYYCARVRSRNTGYYYWGQGTQVTVSS | high polyreactivity |
| QVQLVESGGGLVQAGGSLRLSFAASGFTFWKNAMGWYRQAPGKERELVATISNGGNTYYADSVKGRFTISRDNAKNTVYLQMNSLKPEDTAVYYCATGYPSDLGREFDYWGQGIQVTVSS | high polyreactivity |
| QVQLVESGGGLVQAGGSLRLSCAASGRIFSGYAMGWYRQAPGKERELVAAITSGASTNYADSVKGRFTISRDNAKNTVYLQMNSLKPEDTAVYYCNKKRTADYDYWGQGTQVTVSS | low polyreactivity |
| QVQLVESGGGLVQAGGSLRLSCAASGSTFHTYAMGWYRQAPGKERELVAGITGSGDSTFYADSVKGRFTISRDNAKNTVYLQMNSLKPEDTAVYYCAVESLRDVFEYDYWGQGTQVTVSS | low polyreactivity |
| QVQLVESGGGLVQAGGSLRLSCAASGSIFSGNAMGWYRQAPGKERELVAFISWNAVGTYYSDSVKGRFTISRDNAKNTVYLQLNSLKPEDTAVYYCSAVRYTGFYYWGQGTQVTVSS | high polyreactivity |
| QVQLVESGGGLVQAGGSLRLSCAASGITFSFYAMGWYRQAPGKERELVAAISWNGDSTYYADSVKGRFTISRDNAKNTVYLQMNSLKPEDTAVYYCNAEFVAWYYYEDQDGDYWGQGTQVTVSS | high polyreactivity |
| QVQLEESVGGLVQAGGSLRLSCAASGSILLWNAMGSYREAPGKERELVAAISSSGTSTYYADSVKGLFTISRDNAKNTVYLQMNSEKPEDNAVYYCAADQSEFYAIYYYWGQGTQVTVSS | low polyreactivity |
| QVQLVESGGGLVQAGGSLRLSCAASGSTFDYYDMGWYRQAPGKERELVATITSGGSTNYADSVKGRFTISRDNAKNTVYLQMNSLKPEDTAVYDCAADIGGDGEGYDYWGQGTQVTVSS | low polyreactivity |
| QVQLVESGGGLVQAGGSLRLSCAASGSTFGINAMGGYRPAPGKERELVAAITASGGRTYYADSVKGRFTISRDNAKNTVYLQMNSLKPEDTAVYYCAAGFYPYYYWGQGTQVTVSS | low polyreactivity |
| QVQLVESGGGLVQAGGSLRLSCAASGSTFRWYAMGWYRQAPGKERELVASITWSGGGTYYADSVKGRFTISRDNAKNTVYFQMNSLKPEDTAVYYCNRRTWRYETRGDDYWGQGTQVTVSS | high polyreactivity |
